Assay results taken from patent publication US20190233519A1 (NANJING LEGEND BIOTECH, published 2019).

Target: T1, biotin-labeled hCTLA-4/Fc protein (human, UniProt P16410 37-161, biotin label in the FACS competition assays (sites not given))
T1 construct: also called CTLA-4 ECD (CTLA-4-Fc); CTLA-4-Fc (GenScript, Z03373-50)
Assay: FACS competition, biotin hCTLA-4/Fc on CHO cells expressing human B7-1

T1 sequence (P16410 37-161): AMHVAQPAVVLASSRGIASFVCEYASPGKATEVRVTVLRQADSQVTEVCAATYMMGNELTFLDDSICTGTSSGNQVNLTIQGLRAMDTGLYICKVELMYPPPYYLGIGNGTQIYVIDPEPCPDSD

EC50: ~14.5 nM
B1: A34311 sdAb (VHH)
VHH: QVKLEESGGGLVLPGESLRLSCEASGRTITTITMGWFRQAPGKERQFVASHSWTDNNPYYADSVKGRFIISRDNAGNRVYLQMHSLEPEDTAVYYCAATARRSFVGRQWYTEARQYDYWGQGTQVTVSS
notes: also called A34311 (WT)
